Biological target: B-Glucosidase
Test: ITC; 1 mM BSA in the syringe, 10 uL injections into 66 uM B-GLU in the cell; 25 °C; PBS pH 6; VP-ITC; fitted with AFFINImeter, independent sites approach (GoF = 50.81%)

## Bovine Serum Albumin (from UniProt P02769 25-607) (natural protein)
  Ka: 530000 M⁻¹
  Kd: 1900 nM
  dH: -0.26 kcal/mol
  stoichiometry N: 1.23
